Consider 13 molecules from patent US20130196320A1, “METHOD FOR IMPROVING CLEAVAGE OF DNA BY ENDONUCLEASE SENSITIVE TO METHYLATION” (CELLECTIS, priority 2010, published 2013).

Bounds are passed on as bounds.

Series [1] concerns the target T1, I-CreI wild type (Chlamydomonas reinhardtii, UniProt P05725 SEQ:1-163).
T1 sequence: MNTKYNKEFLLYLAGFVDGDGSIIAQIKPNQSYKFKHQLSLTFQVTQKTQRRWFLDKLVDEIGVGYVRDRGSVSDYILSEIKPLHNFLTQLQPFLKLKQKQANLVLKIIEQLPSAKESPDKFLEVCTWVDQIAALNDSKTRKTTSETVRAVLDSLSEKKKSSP
In words: FP; 400 mM NaCl, 10 mM CaCl2, pH8, 25 C. Particulars: tags: C-terminal 6xHis, E. coli BL21; chain copies: 2 (inferred); label: 5' fluorescein on forward strand. As to the method:
(§1) FIG. 4: Spectrofluorimetric titration of fluorescein-labeled C1234 by I-Cre I wild type. 25 nM of C1234 duplex was incubated with increasing concentrations of I-Cre I [from 0 to 400 nM, only 0-80 nM shown] in binding buffer (10 mM Tris-HCl, 400 mM NaCl, 10 mM CaCl₂, 10 mM DTT, pH8) at 25° C. After 30 minutes incubation, the fluorescence anisotropy of the mixture was recorded with a Pherastar Plus (BMG Labtech) operating in fluorescence polarization end point mode with excitation and emission wavelengths set to 495 and 520 nm respectively. Normalized fluorescence anisotropy is plotted as a function of active I-Cre I concentration. Apparent dissociation constant were determined by fitting raw data by an hyperbolic function (Aₓ=(A_{∞}*[Meganuclease])/(Kd+[Meganuclease]) with Aₓ, the fluorescence anisotropy value obtained at a given meganuclease concentration, A_{∞}, the fluorescence anisotropy value obtained at saturating concentration of meganuclease and Kd the dissociation constant of the equilibrium studied).
Fluorescein labeled C1234 oligonucleotides were synthesized and HPLC-purified by Eurogentec. To prepare C 1234 duplex corresponding to I-Cre I double strand DNA wild type target, C1234 forward (SEQ ID NO: 31, “a” strand below) labeled with Fluorescein on its 5′ end was mixed with 1 equivalent of C1234_reverse (SEQ ID NO: 32, “b” strand below) in 100 mM Tris-HCl, 50 mM EDTA, 150 mM NaCl, pH8. The mixture was heated to 95° C. for 2 min and then cooled down to 25° C. over 1 hour. C1234 duplex was eventually purified by anion exchange chromatography using a miniQ PE column (GE healthcare) pre-equilibrated with buffer A (20 mM Tris-HCl, pH7.4). Single stranded oligonucleotides and other contaminants were first discarded using a 0 to 360 mM NaCl step gradient and elution of pure C1234 duplex was performed with a 360-1000 mM NaCl linear gradient (5 column volumes). C 1234 duplex and fluorescein final concentrations were assessed by spectrophotometry using their respective extinction coefficients ε₂₆₀ₙₘ=62900 M⁻¹ cm⁻¹ and ε₄₉₅ₙₘ=83000 M⁻¹ cm⁻¹. […]

Series [2] has as its target T2, ADCY9 meganuclease (I-CreI-derived) (Artificial Sequence).
T2 chain: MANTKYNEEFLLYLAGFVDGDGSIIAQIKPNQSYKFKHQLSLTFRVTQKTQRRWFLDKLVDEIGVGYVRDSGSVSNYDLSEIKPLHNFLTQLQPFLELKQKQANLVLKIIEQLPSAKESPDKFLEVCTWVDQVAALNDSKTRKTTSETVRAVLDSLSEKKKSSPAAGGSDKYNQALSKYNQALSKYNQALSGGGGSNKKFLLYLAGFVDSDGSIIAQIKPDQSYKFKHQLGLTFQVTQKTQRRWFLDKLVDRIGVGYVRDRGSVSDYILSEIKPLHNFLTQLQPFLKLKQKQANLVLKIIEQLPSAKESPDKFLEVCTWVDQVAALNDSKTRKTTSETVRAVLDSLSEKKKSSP
In words: FP; apparent Kd, sigmoidal binding; 10 mM CaCl2, 150 mM NaCl, pH8, 25 C.

The target of series [3] is T1, I-CreI wild type. In words: FP; 400 mM NaCl, 10 mM CaCl2, pH8, 25 C; no saturation. Particulars: tags: C-terminal 6xHis, E. coli BL21; chain copies: 2 (inferred); label: 5' fluorescein on forward strand. As to the method: as §1
(§2) Fluorescein labeled C1234 oligonucleotides were synthesized and HPLC-purified by Eurogentec. […] C 1234 duplex and fluorescein final concentrations were assessed by spectrophotometry using their respective extinction coefficients ε₂₆₀ₙₘ=62900 M⁻¹ cm⁻¹ and ε₄₉₅ₙₘ=83000 M⁻¹ cm⁻¹. […]

Series [4] has as its target T3, XPC4 meganuclease (I-CreI-derived) (Artificial Sequence).
T3 chain: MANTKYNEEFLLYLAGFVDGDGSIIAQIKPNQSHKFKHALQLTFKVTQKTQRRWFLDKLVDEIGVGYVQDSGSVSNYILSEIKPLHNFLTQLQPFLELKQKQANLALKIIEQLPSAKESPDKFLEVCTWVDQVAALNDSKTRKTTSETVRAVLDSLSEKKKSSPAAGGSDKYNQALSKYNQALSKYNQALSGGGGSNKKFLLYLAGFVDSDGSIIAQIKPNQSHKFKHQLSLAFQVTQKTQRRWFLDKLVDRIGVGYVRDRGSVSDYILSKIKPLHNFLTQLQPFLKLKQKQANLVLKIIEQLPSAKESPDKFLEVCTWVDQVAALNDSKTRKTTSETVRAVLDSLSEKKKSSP
Description: FP; 10 mM CaCl2, 150 mM NaCl, pH8, 25 C; not significantly different from unmethylated.

Series [5] deals with T1, I-CreI wild type. In words: FP; 10 mM Tris pH8, 400 mM NaCl, 10 mM CaCl2, 10 mM DTT, 25 C. Conditions: tags: C-terminal 6xHis, E. coli BL21; chain copies: 2 (inferred); label: 5' fluorescein on forward (a) strand. As to the method: as §1, §2
In series [6] the target is T2, ADCY9 meganuclease (I-CreI-derived). In words: FP; 10 mM CaCl2, 150 mM NaCl, pH8, 25 C.
Series [7] deals with T3, XPC4 meganuclease (I-CreI-derived). Description: FP; 10 mM CaCl2, 150 mM NaCl, pH8, 25 C.
In series [8] the target is T4, I-CreI D75N (UniProt P05725 SEQ:1-167).
T4 chain: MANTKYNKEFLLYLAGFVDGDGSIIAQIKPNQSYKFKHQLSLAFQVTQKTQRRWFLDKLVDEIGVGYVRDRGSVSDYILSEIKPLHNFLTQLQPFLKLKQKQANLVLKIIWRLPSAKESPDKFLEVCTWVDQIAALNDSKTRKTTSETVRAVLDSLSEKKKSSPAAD
In words: cleavage_in_vitro; relative to unmethylated C1221. Particulars: tags: C-terminal 6xHis, E. coli BL21; chain copies: 2 (inferred). As to the method: FIG. 3: In vitro cleavage of unmethylated or methylated C1221 by I-CreI D75N. 50 nM C1221 containing either 0, 1, 2 or 3 methylated CG was incubated with increasing concentrations of I-CreI D75N (0 to 2 μM) in reaction buffer (10 mM Tris-HCl, 150 mM NaCl, 10 mM MgCl₂, pH8) for an hour at 37° C. The reaction was stopped and cleaved and uncleaved C1221 (top and bottom panel respectively) were quantify and plotted as function of I-CreI D75N concentration.
To investigate the influence of C1221 methylation on the nuclease activity of I-CreI, an in vitro cleavage assay with either unmethylated or fully methylated C1221 duplex (SEQ ID NOs: 4-5 and 12-13 respectively) was performed. A constant amount of C1221 duplex (50 nM) was incubated with increasing concentration of I-CreI (0 to 2 μM) in a total volume of 25 μL of reaction buffer (10 mM Tris-HCl, 150 mM NaCl, 10 mM MgCl₂, pH8). Cleavage reaction was allowed to proceed 1 hour at 37° C. and then stopped by addition of 5 μL of 6× stop buffer (45% glycerol, 95 mM EDTA, 1.5% (w/v) SDS, 1.5 mg/mL proteinase K and 0.048% (w/v) bromophenol blue) followed by an hour incubation at 37° C. Cleaved and uncleaved DNA products were separated by PAGE using a TGX Any kD precast gel (Bio-Rad), stained with SYBR Green and then quantified using Quantity One software (Bio-Rad).
To investigate the influence of C1221 methylation on the nuclease activity of I-CreI D75N, in vitro cleavage assay with C1221 duplex containing either 0, 1, 2 or 3 methylated CG (SEQ ID NOs: 4-5, 6-7, 8-9, 10-11 respectively) was performed, according to the procedure described for I-CreI wild type.

B1: C1234_Me-6a/-3a (dsDNA)
DNA 1: TCAAAACGTCGTGAGACAGTTTGG
DNA 2: CCAAACTGTCTCACGACGTTTTGA
modifications: 5mC at -6a, -3a
In series [1], B1 displayed a Kd of at most 2.5 nM.

B2: ADCY9.1_Me -3a/-2b (dsDNA)
DNA 1: CCCAGATGTCGTACAGCAGCTTGG
DNA 2: CCAAGCTGCTGTACGACATCTGGG
modifications: 5mC at -3a, -2b
For B2, the Kd in series [2] is 431 nM.

B3: C1234_Me-5b/-2b (dsDNA)
DNA 1: TCAAAACGTCGTGAGACAGTTTGG
DNA 2: CCAAACTGTCTCACGACGTTTTGA
modifications: 5mC at -5b, -2b
In series [3], B3 gave a Kd of over 1000 nM.

B4: XPC4.1_Me -11a/-10b & +10a/+11b (dsDNA)
DNA 1: TCGAGATGTCACACAGAGGTACGA
DNA 2: TCGTACCTCTGTGTGACATCTCGA
modifications: 5mC at -11a, -10b, +10a, +11b
For B4, in series [4], the Kd worked out at 127 nM.

B5: C1234_Me-2b (dsDNA)
DNA 1: TCAAAACGTCGTGAGACAGTTTGG
DNA 2: CCAAACTGTCTCACGACGTTTTGA
modifications: 5mC at -2b
B5 returned a Kd in series [1] of 40.8 nM.

B6: C1234 (dsDNA)
DNA 1: TCAAAACGTCGTGAGACAGTTTGG
DNA 2: CCAAACTGTCTCACGACGTTTTGA
B6 yielded a Kd in series [5] of at most 2.5 nM.

B7: ADCY9.1 (dsDNA)
DNA 1: CCCAGATGTCGTACAGCAGCTTGG
DNA 2: CCAAGCTGCTGTACGACATCTGGG
For B7, in series [6], the Kd worked out at 190 nM.

B8: C1234_Me full (dsDNA)
DNA 1: TCAAAACGTCGTGAGACAGTTTGG
DNA 2: CCAAACTGTCTCACGACGTTTTGA
modifications: 5mC at -6a, -3a, -5b, -2b
For the molecule B8, the Kd in series [3] was over 1000 nM.

B9: XPC4.1 (dsDNA)
DNA 1: TCGAGATGTCACACAGAGGTACGA
DNA 2: TCGTACCTCTGTGTGACATCTCGA
The molecule B9 displayed a Kd in series [7] of 108 nM.

B10: C1234_Me-5b (dsDNA)
DNA 1: TCAAAACGTCGTGAGACAGTTTGG
DNA 2: CCAAACTGTCTCACGACGTTTTGA
modifications: 5mC at -5b
In the case of B10, in series [1], the Kd amounted to 24 nM.

B11: C1221_1Me (dsDNA)
DNA 1: GGGGTCAAAACGTCGTACGACGTTTTGAGGGG
DNA 2: CCCCTCAAAACGTCGTACGACGTTTTGACCCC
modifications: 5mC at 1 CpG on both strands
As for B11, the activity in series [8] is ~3 fold increase of C50.

B12: C1221_2Me (dsDNA)
DNA 1: B11 DNA 1
DNA 2: B11 DNA 2
modifications: 5mC at 2 CpG on both strands
Turning to B12, the activity in series [8] was > 10 fold increase of C50.

B13: C1221_3Me (dsDNA)
DNA 1: B11 DNA 1
DNA 2: B11 DNA 2
modifications: 5mC at 3 CpG on both strands
Regarding B13, the activity in series [8] was > 10 fold increase of C50.
